Blank lines part the entries; values can stand above or below the binder they belong to. Bridge positions count the residues as written; N and C are the ends. Square brackets hold non-standard residues; d marks the D form. Ends that are not written are not given here. βAla = NCCC(=O)O
Columns and labels:
[1] = target: T1, mouse EphA4 ectodomain fused to Fc (mouse, UniProt Q03137 20-547); assay: competition ELISA: ephrin-A5 AP binding to immobilized EphA4 Fc
T1 construct: extracellular domain; Defined as 'EphA4 Fc; also called EphA4 Fc; not shown: Fc portion
T1 sequence (Q03137 20-547): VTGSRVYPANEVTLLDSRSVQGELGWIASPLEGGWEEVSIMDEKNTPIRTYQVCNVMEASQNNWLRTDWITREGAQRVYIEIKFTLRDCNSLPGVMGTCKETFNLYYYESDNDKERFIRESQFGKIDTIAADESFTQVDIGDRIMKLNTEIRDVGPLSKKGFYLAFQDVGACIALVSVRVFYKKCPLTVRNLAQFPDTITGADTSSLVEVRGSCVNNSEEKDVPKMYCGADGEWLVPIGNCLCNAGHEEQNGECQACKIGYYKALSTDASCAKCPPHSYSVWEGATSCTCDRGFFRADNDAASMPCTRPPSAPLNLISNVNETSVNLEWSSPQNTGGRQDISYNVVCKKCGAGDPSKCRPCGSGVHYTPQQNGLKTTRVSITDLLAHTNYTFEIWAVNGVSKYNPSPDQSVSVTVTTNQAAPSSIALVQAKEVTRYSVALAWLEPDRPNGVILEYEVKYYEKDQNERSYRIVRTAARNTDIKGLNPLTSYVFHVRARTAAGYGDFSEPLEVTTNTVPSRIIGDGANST
Procedure: OD₄₀₅ was measured and the absorbance from wells coated with Fc was subtracted as background.

[2] = target: EphA4 in stably transfected human embryonal kidney (HEK293) cells; assay: cell-based or functional assay

Binder: APYCVYRXSWSC (D-Ala at position 8; C-terminal amide; disulfide bridge Cys4-Cys12) [APY-DAla8.am]
IC50 [1]: 280 nM

B1: APY-Aib8.am (peptide)
peptide: APYCVYRXSWSC
modifications: aminoisobutyric acid (Aib) at position 8; C-terminal amide; disulfide bridge Cys4-Cys12
IC50 [1]: 2600 nM

Binder: APYCVYK[βAla]SWSC-NH2 (disulfide 4-12 (inferred), also called APYCVYKβASWSC-am) [APY-Lys7-βAla8.am]
IC50 [1]: 68 nM

B2: APY-βAla8.am (peptide)
peptide: APYCVYRXSWSC
modifications: βAla (3-aminopropanoic acid) at position 8; C-terminal amide; disulfide bridge Cys4-Cys12
IC50 of inhibition of ephrin-A5-induced EphA4 tyrosine phosphorylation in HEK293 cells [2]: ~300 nM

Binder: APYCVYRGSWSC-NH2 (disulfide 4-12, C-terminally amidated APY) [APY.am]
IC50 [1]: 280 nM

Binder: KYCVYR[βAla]SWSC-NH2 (disulfide 3-11 (inferred), numbers may be shifted) [KY-βAla8.am]
IC50 [1]: 260 nM

Binder: XPYCVYRGSWSC (D-Ala at position 1; C-terminal amide; disulfide bridge Cys4-Cys12) [DAla1-PY.am]
IC50 [1]: 1100 nM

The remaining lines, values ahead:

IC50 [1]: 1470 nM
Binder: YCVYR[βAla]SWSC-NH2 (disulfide 2-10 (inferred), numbers may be shifted) [Y-βAla8.am]

IC50 [1]: 1160 nM
Binder: Ac-KYCVYR[βAla]SWSC-NH2 (disulfide 3-11 (inferred), numbers may be shifted) [ac.KY-βAla8.am]

IC50 [1]: 680 nM
Binder: XPYCVYRGSWSC (βAla at position 1; C-terminal amide; disulfide bridge Cys4-Cys12) [βAla1-PY.am]
